In the supplement of paper PMC10126150:
± gives the standard deviation of the averaged measurements.

system: ATP; assay: switch fluorescence ratio, 500 uM ATP over buffer (Cy3 cluster intensity, sum of 5 cycles each) (fold (ratio)); higher = stronger signal-on switching upon ATP binding; sequences stand for … in TCGTCGGCAGCGTCAGATGTGTATAAGAGACAGTTTTTTTTTTTTTTTTTTTTTTTTT…TC; conditions: aptamer strand: ATP DNA aptamer (quencher-CACCTGGGGGAGTATTGCGGAGGAAGG + anchor), 100 nM annealed; ATP concentration: 500 uM
Method in brief: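 Cy3-labelled switching-strand clusters on a modified Illumina MiSeq flow-cell were annealed to 100 nM quencher-labelled ATP aptamer, imaged in selection buffer, then imaged after 15 min with 500 uM ATP at 22 °C. Five buffer/ATP cycles ran, with NaOH stripping and re-annealing between them. The fluorescence ratio is summed target-cycle over summed buffer-cycle Cy3 intensity per cluster, averaged per switch-domain sequence. Clusters outside 100-1000 RFU were excluded.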
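Further: ATP exposure 15 min at 22 °C before imaging.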

Sequence | switch fluorescence ratio
CTCGGGATGG | 1.74 ± 0.98
CTCGGGCATT | 1.23 ± 0.052
CTCGGGGATG | 0.976 ± 0.013
CTCGGGGTTG | 1.022 ± 0.008
CTCGTAGCAG | 1.17 ± 0.013
CTCGTCCCCG | 0.994 ± 0.06
CTCGTGCCCG | 1.05 ± 0.075
CTCGTGGCGG | 1.02 ± 0.076
CTCGTTCTAT | 1.002 ± 0.0057
CTCGTTGAAG | 0.979 ± 0.032
CTCGTTGGGG | 0.979 ± 0.015
CTCGTTGTGG | 1.25 ± 0.37
CTCTAAGT | 1.01 ± 0.017
CTCTAGCTTT | 1.09 ± 0.075
CTCTATTGTG | 0.964 ± 0.027
CTCTCAAGGT | 1.05 ± 0.018
CTCTGAAATC | 2.997 ± 0.01
CTCTGAGGGC | 1.07 ± 0.057
CTCTGCGTCA | 1.32 ± 0.025
CTCTGTATGT | 1.035 ± 0.0081
CTCTGTGGAC | 2.11 ± 0.27
CTCTGTTACA | 1.04 ± 0.038
CTCTTGTGTT | 1.02 ± 0.048
CTCTTTCTAC | 2.05 ± 1.3
CTCTTTGGGG | 0.976 ± 0.013
CTGAAACAGC | 1.06 ± 0.043

Sequence | switch fluorescence ratio
CTGAAAGGGT | 1.01 ± 0.011
CTGAAGGATT | 1.01 ± 0.011
CTGAAGGGGG | 0.967 ± 0.058
CTGAAGTCTG | 1.019 ± 0.0084
CTGAATCCTA | 1.01 ± 0.017
CTGACACCCG | 1.07 ± 0.039
CTGACCGGTC | 1.017 ± 0.0087
CTGAGAATGG | 1.02 ± 0.011
CTGAGAGAAT | 1.27 ± 0.46
CTGAGATCTC | 1.02 ± 0.011
CTGAGGCTGA | 1.12 ± 0.11
CTGAGGGAAA | 0.988 ± 0.029
CTGAGGGAGC | 1.09 ± 0.061
CTGATAGTTG | 1.04 ± 0.0013
CTGATGGGGT | 1 ± 0.013
CTGATGTGGC | 1.06 ± 0.011
CTGATGTTTT | 0.9747 ± 0.0063
CTGATTACGC | 1.37 ± 0.016
CTGATTATGT | 1.02 ± 0.015
CTGATTTTAG | 1.02 ± 0.071
CTGCAAGGGA | 1.06 ± 0.051
CTGCAAGGGT | 1.214 ± 0.011
CTGCCAGGTT | 1.146 ± 0.0052
CTGCCCTCGC | 1.094 ± 0.0089
CTGCTAGACC | 1.21 ± 0.036
CTGCTCGTAA | 1.99 ± 0.18

Sequence | switch fluorescence ratio
CTGCTCTGGG | 1.02 ± 0.017
CTGCTGCAGG | 1.03 ± 0.044
CTGGAAATTT | 1 ± 0.027
CTGGAATCCG | 1.08 ± 0.015
CTGGAATTTT | 0.9949 ± 0.0028
CTGGACAGTA | 1.01 ± 0.027
CTGGACATGT | 0.97556 ± 7.2e-05
CTGGATGACA | 0.986 ± 0.092
CTGGCAGAAA | 1.02 ± 0.043
CTGGCCAGTT | 1 ± 0.013
CTGGCGAGGG | 1.01 ± 0.026
CTGGCGAGTA | 1.01 ± 0.016
CTGGCTGGTG | 1.1 ± 0.026
CTGGCTGTCT | 1.02 ± 0.036
CTGGCTTGAC | 0.983 ± 0.0052
CTGGGACAAA | 1.001 ± 0.0016
CTGGGATAGG | 1 ± 0.02
CTGGGATATA | 1 ± 0.04
CTGGGATTTG | 0.997 ± 0.049
CTGGGGGAGT | 1 ± 0.012
CTGGGGGATA | 1.02 ± 0.036
CTGGGGGGTA | 0.997 ± 0.028
CTGGGGTCGG | 1 ± 0.052
CTGGGGTGGA | 1.01 ± 0.036
CTGGGGTGTA | 1.03 ± 0.059
CTGGGTAAGT | 1.017 ± 0.0074

Sequence | switch fluorescence ratio
CTGGGTATGT | 0.959 ± 0.027
CTGGGTATTT | 0.999 ± 0.04
CTGGGTGCCG | 0.968 ± 0.084
CTGGGTTATT | 0.977 ± 0.042
CTGGGTTTAT | 1 ± 0.042
CTGGTAATAT | 1.15 ± 0.041
CTGGTACGAC | 1.13 ± 0.016
CTGGTACGGA | 1.0245 ± 0.00032
CTGGTCAATG | 1.01 ± 0.063
CTGGTCGCTG | 1.01 ± 0.046
CTGGTCGGGT | 1 ± 0.006
CTGGTCGTGC | 0.999 ± 0.013
CTGGTGGATT | 0.996 ± 0.024
CTGGTGGCCG | 1 ± 0.028
CTGGTTAACT | 1.024 ± 0.0048
CTGGTTAGGT | 1.01 ± 0.02
CTGGTTGCGG | 0.979 ± 0.021
CTGGTTTTGT | 1.04 ± 0.014
CTGTAAGGTG | 1.83 ± 1
CTGTAAGTCT | 0.989 ± 0.011
CTGTAGAAGA | 1.05 ± 0.032
CTGTAGACGG | 1.05 ± 0.014
CTGTATAGGT | 0.965 ± 0.025
CTGTATCAAG | 0.999 ± 0.013
CTGTATCTTT | 1.02 ± 0.036
CTGTCAGATT | 0.974 ± 0.025

Sequence | switch fluorescence ratio
CTGTCATGGG | 0.9952 ± 0.0063
CTGTCCAGTT | 1.02 ± 0.048
CTGTCGGGCG | 1.02 ± 0.035
CTGTCGGGGT | 0.982 ± 0.037
CTGTGAGTTT | 1.007 ± 0.0094
CTGTGCCAAG | 1.0036 ± 0.00061
CTGTGCTAGG | 1.01 ± 0.011
CTGTGGCCCG | 0.98 ± 0.027
CTGTGGGGGT | 1.04 ± 0.012
CTGTGGTTTA | 1.03 ± 0.021
CTGTGTGAAG | 1 ± 0.038
CTGTGTGTTT | 0.9781 ± 0.0072
CTGTTACTGT | 0.986 ± 0.024
CTGTTAGGCG | 0.9676 ± 0.0092
CTGTTCTAGT | 0.963 ± 0.045
CTGTTGAAAA | 1.07 ± 0.022
CTGTTGAATT | 1.01 ± 0.046
CTGTTGGTGG | 0.99 ± 0.017
CTGTTGTGGG | 0.989 ± 0.039
CTGTTTAAGT | 1.005 ± 0.0073
CTGTTTCCGA | 1.03 ± 0.052
CTGTTTTTAT | 1.01 ± 0.034
CTTAAAACGT | 1.056 ± 0.0033
CTTAAATGGG | 0.955 ± 0.019
CTTAAATTCT | 1.01 ± 0.011
CTTACAGCTT | 1.04 ± 0.023

Sequence | switch fluorescence ratio
CTTACAGTTT | 1 ± 0.011
CTTACGGTCG | 1.02 ± 0.038
CTTAGACGTC | 0.948 ± 0.043
CTTAGAGTTG | 0.983 ± 0.016
CTTAGCGGCC | 1.007 ± 0.0038
CTTAGCTATT | 1.019 ± 0.0077
CTTAGGCGGG | 1 ± 0.059
CTTAGGGAGC | 0.969 ± 0.085
CTTAGGGGCG | 0.976 ± 0.024
CTTAGGGTTT | 0.988 ± 0.019
CTTAGTAGT | 0.973 ± 0.024
CTTAGTATAG | 0.998 ± 0.032
CTTAGTGCGG | 0.978 ± 0.0012
CTTAGTTGGT | 0.965 ± 0.012
CTTATAGTGC | 0.974 ± 0.0023
CTTATATATG | 0.987 ± 0.017
CTTATATTTT | 0.997 ± 0.066
CTTATCAATT | 1 ± 0.018
CTTATCGAAG | 0.968 ± 0.015
CTTATCGGGG | 1 ± 0.013
CTTATGATAG | 0.97 ± 0.013
CTTATGTATT | 0.993 ± 0.019
CTTATTCGTC | 1.04 ± 0.025
